Test results as given in US20110287017A1.

Target: membrane P-selectin coated in a flow chamber (low and high density) (UniProt P16109)
Assay: cell-based or functional assay

membrane P-selectin coated in a flow chamber (low and high density), sequence (P16109 42-830 limits assumed): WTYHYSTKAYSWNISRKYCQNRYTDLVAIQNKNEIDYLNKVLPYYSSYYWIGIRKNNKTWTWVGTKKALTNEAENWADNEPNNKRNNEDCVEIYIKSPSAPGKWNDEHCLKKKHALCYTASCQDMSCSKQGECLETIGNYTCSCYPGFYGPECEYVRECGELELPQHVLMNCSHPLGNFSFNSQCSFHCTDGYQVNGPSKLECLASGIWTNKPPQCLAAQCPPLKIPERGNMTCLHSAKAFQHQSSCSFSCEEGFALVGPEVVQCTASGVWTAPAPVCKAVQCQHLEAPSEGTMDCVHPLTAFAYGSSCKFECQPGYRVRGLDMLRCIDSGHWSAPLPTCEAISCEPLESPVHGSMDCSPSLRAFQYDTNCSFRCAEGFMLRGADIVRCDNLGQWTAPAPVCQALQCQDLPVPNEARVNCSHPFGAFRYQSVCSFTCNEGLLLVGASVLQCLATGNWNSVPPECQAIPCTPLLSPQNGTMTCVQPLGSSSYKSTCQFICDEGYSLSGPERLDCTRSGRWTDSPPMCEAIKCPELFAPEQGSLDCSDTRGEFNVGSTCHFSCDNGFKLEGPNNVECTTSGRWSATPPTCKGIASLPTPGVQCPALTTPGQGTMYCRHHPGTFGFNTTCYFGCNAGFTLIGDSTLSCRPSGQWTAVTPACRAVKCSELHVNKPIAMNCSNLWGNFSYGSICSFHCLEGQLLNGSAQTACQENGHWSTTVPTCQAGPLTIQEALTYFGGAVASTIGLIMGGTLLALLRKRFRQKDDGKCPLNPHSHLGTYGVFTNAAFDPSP

In the case of “G3 mouse monoclonal anti-P-selectin antibody”, the time to block rolling neutrophils on high density P-selectin is reported as less than 20 min.
